In one data set the test system is cAMP levels. The data set is described as follows: cAMP assay in mouse N2a cells. The settings on record: FG01 overexpression. It is filed as cell-based. From the text:
After 48-72 hrs, cells were lysed and cell lysates were subjected to immunoprecipitation with mouse IgG, rabbit IgG, myc antibody and adenylyl cyclase (AC) antibody (Santa Cruz Biotechnology, catalog number sc-1701), and then immunoblotted with antibodies against adenylyl cyclase (AC) and myc, respectively.
Commercial kits were used to assay in vitro activities of GSK-3β (Sigma) and PKA (Upstate). For GSK-3α activity, a commercial GSK-3β activity assay kit was used but the procedure to immunoprecititate GSK-3β was replaced with immunoprecipitation of GSK-3α using an anti-GSK-3α antibody (Cell Signaling). cAMP levels were assayed using a commercial kit (Biovision).
Background: Cyclic AMP is a second messenger, typically raised through Gs and lowered through Gi signalling.

Data set [1] has as its system FG01 transgenic mouse brain. The data set is described as follows: brain-specific FG01 transgenic mice, brain analysis. It is filed as in vivo. The text has this: Brain-specific FG01 transgenic mice were generated using a FG01 expression cassette. FG01 has an N-terminal Myc tag and is driven by the human Thy-1 promoter for neuron-specific expression. A SV40 polyA fragment is linked at the 3′ end for enhancing expression. Genotyping P5 primer was complementary to hThy1 sequence. Genotyping P3 primer was complementary to SV40/Poly A sequence. Reverse transcription primer RT-P5 was complementary to sequence on the 5′ side of the FG01 sequence. Hemizygous FG01 transgenic mice were crossed with homozygous triple transgenic (3×Tg) AD mice harboring mutations in human APP and tau genes on a presenilin 1 (PS1) mutant background (Oddo et al., 2003). Procedures involving animals and their care conformed to institutional guidelines (Animal Resources Department at Burnham Institute for Medical Research).
N-terminally Myc-tagged FG01 cDNA was cloned into pHZ04 construct between the human Thy-1 promoter and the SV40 polyA regions. Purified, linearized minigenes containing these sequences were microinjected into prenuclear embryos from superovulated C57B16 females. Two primers (Genotyping-P5: 5′-[…]-3′; SEQ ID NO:25), and Genotyping-P3: 5′-[…]-3′; SEQ ID NO:26) located within the human Thy-1 promoter and the SV40 regions, respectively, were used for genotyping. Brain tissues from confirmed transgenic mice and littermate controls were used for RNA extraction, reverse transcription and PCR with RT-P5 primer (5′-AGAATTTGGCTGTTTGG-3′; SEQ ID NO:27) located within the FG01 cDNA region paired with the Genotyping-P3 primer to verify Myc-FG01 expression. Alternatively, brain lysates were immunoprecipitated and analyzed by Western blot with the Myc antibody to verify Myc-FG01 expression. Procedures involving animals and their care conformed to institutional guidelines (Animal Resources Department at Burnham Institute for Medical Research).
To validate FG01 function in vivo, an FG01 transgenic mouse model specifically overexpressing Myc-tagged FG01 in the brain was generated. A transgenic expression cassette driven by the human Thy-1 promoter was microinjected into C57B16 mice and primers specifically amplifying exogenous Myc-FG01 were used to genotype transgenic mice. Genomic DNA extracted from mouse tail samples was genotyped by PCR using Genotyping-P5 and Genotyping-P3 primers located in the human Thy1 and SV40 polyA regions, respectively. […] Total RNA was extracted from the brain of an FG01 transgenic mouse (1) and of a littermate control (0), followed by RT-PCR with the RT-P5 primer located within the FG01-coding region and the Genotyping-P3 primer for detecting Myc-FG01 mRNA. Immunoprecipitation/Western blot confirmed that exogenous Myc-tagged FG01 protein was expressed in brain tissues of transgenic mice. Brain samples from FG01 transgenic (Tg) mice and littermate controls (Non-Tg) were analyzed for levels of phosphorylated/total CREB, phosphorylated/total GSK-3, and various tau forms by direct Western blot. Myc-FG01 was detected by immunoprecipitation-Western blot using the Myc antibody. Two mouse lines with similar exogenous FG01 expression levels were generated and the results obtained from the two lines (including their crossing with 3×Tg mice as described below) were similar. […] Brain lysates from FG01-Tg and Non-Tg mice were analyzed for GSK-3β activity. Results were normalized to those of Non-Tg samples.

B1: FG01: 141 amino acid transmembrane protein encoded by mouse retrogene fg01 (SEQ ID NO:2); expressed from transfected vector or transgene (protein)
chain: MQSQQRNIGYFNHLKADSRNITYSMTFSTKSSNQNFIIFLNEVQAAIIGHERCDLLPVLNELHPDALPDGRIWLFGLNPYFFQHNSLCMRGTPKRIGLQGCAQVGFLVLFVMPLLIPSVTAELPGSSETTTLAHLAGATGP
modifications: Myc and His6 tags; homo sapien
notes: expressed from transfected vector or transgene
With B1, the “increase of cAMP levels” value in the data set with cAMP levels was determined as 38%. For the same molecule, in data set [1] (FG01 transgenic vs littermate non-Tg mice), the “levels of phosphorylated (inactive) GSK-3α/β in brain” value is on record as “increased”. Moreover, in data set [1] (FG01 transgenic vs non-Tg mice), the “CREB phosphorylation in brain” value is given as “Increased” and the “phosphorylation of endogenous mouse brain tau” value is reported as “decreased”. Further, the “GSK-3β activity in brain” value in data set [1] (FG01 transgenic vs non-Tg mice, brain lysates) is “reduced”. Besides, the behavioral phenotypes entry in data set [1] (observation of FG01 transgenic mice) is given as “no obvious aberrant behavioral phenotypes”.

These data come from patent publication US20090233993A1, “COMPOSITIONS AND METHODS FOR INHIBITING GSK3 ACTIVITY AND USES THEREOF” (Burnham Institute for Medical Research, priority 2008, published 2009).
